Experimental findings from publication PMC7300015 are described below.

Assay [1] has as its target HKU2 spike glycoprotein ectodomain (residues 1-1066) (Rhinolophus bat coronavirus HKU2). Kind of assay: cryo-EM structure.
The target of assay [2] is SADS-CoV spike glycoprotein ectodomain (residues 1-1068) (swine acute diarrhea syndrome coronavirus (SADS-CoV)). Kind of assay: cryo-EM structure.

One may read the stoichiometry N as the number of molecules, sites or subunits per partner or assembly.

In assay [1], “HKU2 spike glycoprotein ectodomain (residues 1-1066) (domain or fragment)” yielded a stoichiometry N of 3.
Turning to “SADS-CoV spike glycoprotein ectodomain (residues 1-1068) (domain or fragment)”, the stoichiometry N in assay [2] is 3.
